Experimental data from patent US10261099B2, “Cancer marker and therapeutic target” (Cancer Research Technology Ltd., priority 2007, dated 2019).
“Also recorded” adds a separate entry of the source.

How the values were obtained:
[1] = test system: CCR4 positive and negative cells; assay: CCR4 expression of CCR4 positive and negative cells exposed to cytokines; assay type: cell-based; conditions: cytokines of the cervical microenvironment
Source text: CCR4 positive and negative cells were exposed to a number of cytokines (TNF-α, TGF-β, IFN-γ, IL-4 and IL-10) known to be present in the cervical microenvironment and for which receptors were likely to be present on the tumour cells.

[2] = test system: C41 cervical cancer cell line; assay: CCR4 expression on C41 cells after cytokine stimulation (FACS); assay type: cell-based, human; conditions: 20 ng/ml, 24 h, versus unstimulated cells
Experimental: Dashed line: isotype control; grey line CCR4 expression; bold line; CCR4 expression after cytokine stimulation.
The most common cytokines present in a tumour are IL-10, TGF-β, FGF, TNF-α. The C41 cervical cancer cell line was stimulated in culture with different cytokines (IL-10, TNF-α, TGF-β, FGF; 20 ng/ml) for 24 h. The expression of CCR4 was then determined by FACS analysis.

CCR4 = biological target: T1, CCR4 (Homo sapiens, UniProt P51679); assay: CCR4 expression/internalization on C-41 cells after ligand stimulation (FACS); assay type: cell-based; conditions: stimulation with 100 ng/ml ligand
T1 construct: The cell line C-41 expressed cell surface CCR4 in a constitutive manner; host or cells: C-41 cervical cancer cell line
T1 sequence (P51679 1-360): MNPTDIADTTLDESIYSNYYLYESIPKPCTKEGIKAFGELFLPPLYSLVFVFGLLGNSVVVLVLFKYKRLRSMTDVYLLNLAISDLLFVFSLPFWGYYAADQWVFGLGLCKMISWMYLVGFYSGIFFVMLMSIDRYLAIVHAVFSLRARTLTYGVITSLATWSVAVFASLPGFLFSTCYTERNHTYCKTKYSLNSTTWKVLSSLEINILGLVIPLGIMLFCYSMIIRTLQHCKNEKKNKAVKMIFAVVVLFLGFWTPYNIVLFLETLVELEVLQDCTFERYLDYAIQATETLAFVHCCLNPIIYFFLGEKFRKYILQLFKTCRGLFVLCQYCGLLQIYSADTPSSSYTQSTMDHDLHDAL
Experimental: Values are the mean±SD of 10 determinations,*P <0.05, **P<0.01.
(§1) The cervical cancer cell line C-41 (ATCC, Rockville, Md, USA) was cultured in DMEM medium supplemented with 10% FCS. […] Proliferation and migration were assessed using methods described previously.
To investigate the biological significance of CCR4 expression on cervical cancer cells a number of cervical cancer cell lines (CaSki, Me180, Hela-Ohio, Hela-S3, Siha, C33A, C41-1) were screened for CCR4 expression.

[3] = test system: C-41 cervical cancer cell line; assay: C-41 growth/proliferation under suboptimal conditions after ligand stimulation; assay type: cell-based, human; conditions: 6 days
[4] = test system: C-41 cervical cancer cell line; assay: trans-well migration assay of C-41 cells towards CCR4 ligands; assay type: cell-based, human; conditions: for chemotactic response of C-41 cells: trans-well migration assay
Experimental: as §1
To investigate the biological significance of CCR4 expression on cervical cancer cells a number of cervical cancer cell lines (CaSki, Me180, Hela-Ohio, Hela-S3, Siha, C33A, C41-1) were screened for CCR4 expression. The cell line C-41 expressed cell surface CCR4 in a constitutive manner (FIG. 6A). Using FACS analysis it was shown that C-41 cells expressed cell surface CCR4. […] Following stimulation with 100 ng/ml CCL22, cell surface CCR4 protein was internalized on C-41 cells after 2 hours and returned back to the surface after 3 hours (FIG. 6B).

Molecule: TNF-α
- influence on CCR4 expression [1]: None of these influenced CCR4 expression

Molecule: TGF-β
- influence on CCR4 expression [1]: None of these influenced CCR4 expression
- CCR4 expression on C41 cells after cytokine stimulation [2]: upregulated in terms of percentage of positive cells

B1: CCL17: chemokine ligand of CCR4 (PeproTech) used to stimulate C-41 cells (protein, UniProt Q92583 24-94, looked up)
C-C motif chemokine 17: ARGTNVGRECCLEYFKGAIPLRKLKTWYQTSEDCSRDAIVFVTVQGRAICSDPNNKRVKNAVKYLQSLERS
- cell surface CCR4 returned back to the surface after (CCR4): 3 h
- C-41 cell growth / proliferation ([3]; 1 ng/ml): not
- C-41 cell growth / proliferation ([3]; 10 ng/ml): significant growth increase; also recorded: increased proliferation
- C-41 cell growth / proliferation ([3]; 100 ng/ml): significant growth increase; also recorded: increased proliferation
- migration of C-41 cells ([4]; 10 ng/ml): induced significant migration
- migration of C-41 cells ([4]; 100 ng/ml): induced significant migration
- migration of C-41 cells ([4]; 1000 ng/ml): induced significant migration
- chemotactic response of C-41 cells [4]: typical bell-shaped chemotactic response

B2: CCL22: chemokine ligand of CCR4 (PeproTech) used to stimulate C-41 cells (protein, UniProt O00626 25-93, looked up)
C-C motif chemokine 22: GPYGANMEDSVCCRDYVRYRLPLRVVKHFYWTSDSCPRPGVVLLTFRDKEICADPRVPWVKMILNKLSQ
- cell surface CCR4 protein internalized on C-41 cells after (CCR4): 2 h
- cell surface CCR4 returned back to the surface after (CCR4): 3 h
- C-41 cell growth / proliferation ([3]; 1 ng/ml): significant increased growth; also recorded: simulated C-41 cell growth
- C-41 cell growth / proliferation ([3]; 10 ng/ml): not
- C-41 cell growth / proliferation ([3]; 100 ng/ml): significant increased growth; also recorded: simulated C-41 cell growth
- chemotactic response of C-41 cells [4]: typical bell-shaped chemotactic response

B3: IFN-γ: cytokine known to be present in the cervical microenvironment (protein, UniProt P01579 24-161, looked up)
Interferon gamma: QDPYVKEAENLKKYFNAGHSDVADNGTLFLGILKNWKEESDRKIMQSQIVSFYFKLFKNFKDDQSIQKSVETIKEDMNVKFFNSNKKKRDDFEKLTNYSVTDLNVQRKAIHELIQVMAELSPAAKTGKRKRSQMLFRG
- influence on CCR4 expression [1]: None of these influenced CCR4 expression

B4: IL-4: cytokine known to be present in the cervical microenvironment (protein, UniProt P05112 25-153, looked up)
Interleukin-4: HKCDITLQEIIKTLNSLTEQKTLCTELTVTDIFAASKNTTEKETFCRAATVLRQFYSHHEKDTRCLGATAQQFHRHKQLIRFLKRLDRNLWGLAGLNSCPVKEANQSTLENFLERLKTIMREKYSKCSS
- influence on CCR4 expression [1]: None of these influenced CCR4 expression

B5: IL-10: cytokine commonly present in a tumour, used to stimulate C41 cells (protein, UniProt P22301 19-178, looked up)
Interleukin-10: SPGQGTQSENSCTHFPGNLPNMLRDLRDAFSRVKTFFQMKDQLDNLLLKESLLEDFKGYLGCQALSEMIQFYLEEVMPQAENQDPDIKAHVNSLGENLKTLRLRLRRCHRFLPCENKSKAVEQVKNAFNKLQEKGIYKAMSEFDIFINYIEAYMTMKIRN
- influence on CCR4 expression [1]: None of these influenced CCR4 expression
- CCR4 expression on C41 cells after cytokine stimulation [2]: upregulated in terms of percentage of positive cells
